These are literature values, as cited in article PMC2848394.

In the series the target is BMP-2 (Homo sapiens) (UniProt P12643). The experiment in a line: Biacore SPR. (Surface plasmon resonance follows binding to a sensor surface in real time, without labels.)
BMP-2 (Homo sapiens), sequence (P12643 283-396): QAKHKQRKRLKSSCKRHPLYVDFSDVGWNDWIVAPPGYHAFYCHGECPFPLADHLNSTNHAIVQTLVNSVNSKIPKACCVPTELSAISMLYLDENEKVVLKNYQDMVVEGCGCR

Chordin, sequence (Q9H2X0 27-955): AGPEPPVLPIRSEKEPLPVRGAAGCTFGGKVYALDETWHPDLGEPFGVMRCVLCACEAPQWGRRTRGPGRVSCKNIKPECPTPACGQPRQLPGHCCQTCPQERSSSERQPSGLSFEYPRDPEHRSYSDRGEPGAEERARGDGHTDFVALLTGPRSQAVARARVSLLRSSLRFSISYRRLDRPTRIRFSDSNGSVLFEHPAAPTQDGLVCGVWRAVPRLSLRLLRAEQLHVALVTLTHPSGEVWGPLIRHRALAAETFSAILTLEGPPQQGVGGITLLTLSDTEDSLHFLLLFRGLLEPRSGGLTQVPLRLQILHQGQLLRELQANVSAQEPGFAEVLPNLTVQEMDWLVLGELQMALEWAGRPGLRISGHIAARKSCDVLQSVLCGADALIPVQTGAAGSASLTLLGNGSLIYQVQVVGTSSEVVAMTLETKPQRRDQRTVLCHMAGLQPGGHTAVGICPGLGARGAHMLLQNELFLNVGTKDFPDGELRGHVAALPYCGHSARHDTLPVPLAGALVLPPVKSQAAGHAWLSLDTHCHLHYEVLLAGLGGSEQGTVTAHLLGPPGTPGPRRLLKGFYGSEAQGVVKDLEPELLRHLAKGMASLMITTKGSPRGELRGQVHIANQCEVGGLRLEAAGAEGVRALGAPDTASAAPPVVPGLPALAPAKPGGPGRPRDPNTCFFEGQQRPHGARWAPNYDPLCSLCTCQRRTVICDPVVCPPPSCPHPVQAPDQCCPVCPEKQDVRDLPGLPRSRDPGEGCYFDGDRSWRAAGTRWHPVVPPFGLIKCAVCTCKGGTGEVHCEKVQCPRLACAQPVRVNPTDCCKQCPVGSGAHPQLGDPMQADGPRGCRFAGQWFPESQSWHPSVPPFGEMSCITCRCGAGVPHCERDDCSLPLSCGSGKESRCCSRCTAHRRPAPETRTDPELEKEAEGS

One may read the Kd as the constant that tells how readily two partners part at equilibrium. Turning to Chordin (from UniProt Q9H2X0), the Kd is 0.012 µM.
